In article PMC5435866:
Positions count from the first letter of the chain named.

What was measured:
Assay in all cases: EMSA
[1] = target: T1, Drosophila SLBP ER (UniProt Q9VAN6 1-276, A210G;E212Q;R213C)
T1 sequence: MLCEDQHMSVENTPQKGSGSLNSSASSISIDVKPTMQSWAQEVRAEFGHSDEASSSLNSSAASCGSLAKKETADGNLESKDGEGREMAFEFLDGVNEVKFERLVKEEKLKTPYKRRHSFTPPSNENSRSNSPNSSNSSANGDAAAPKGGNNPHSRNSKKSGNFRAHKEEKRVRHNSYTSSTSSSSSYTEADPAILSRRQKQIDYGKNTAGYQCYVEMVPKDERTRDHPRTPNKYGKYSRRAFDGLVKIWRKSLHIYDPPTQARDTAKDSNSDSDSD

[2] = target: T2, Drosophila SLBP 4S-4A (UniProt Q9VAN6 1-276, S269A;S271A;S273A;S275A)
T2 sequence: T1 sequence with G210A, Q212E, C213R, S269A, S271A, S273A, S275A

[3] = target: T3, Drosophila SLBP 4S-4E (UniProt Q9VAN6 1-276, S269E;S271E;S273E;S275E)
T3 sequence: T1 sequence with G210A, Q212E, C213R, S269E, S271E, S273E, S275E

Measured: binding result

GUGCCAAAAAGGCUCUUUUCAGAGCCACCCA (structured_RNA) [SL RNA]
binds: all assays above
